No end group written: not given here.
Key:
[1] = target: T1, 37 kDa/67 kDa LRP/LR on murine neuroblastoma cells (N2a) (murine, UniProt P14206 2-295); assay: FACS on N2a cells
T1 construct: whole, on cells; also called LRP/LR on the surface of N2a cells

[2] = target: T2, recombinant human LRP::FLAG expressed in BHK cells transfected with SFV1-huLRP-FLAG (human, UniProt P08865 2-295); assay: Western Blot of total extracts of transfected BHK cells
T2 construct: whole, on cells; also called human 37 kDa LRP::FLAG; rec; LRP::FLAG
Protocol: (§1) BHK cells were either not transfected (n.t.) or transfected in the manner known to the person skilled in the art in the specialty with the rec. Semliki forest virus (SFV) RNAs SFV1-huLRP-FLAG or SFV1-mol.RP::FLAG. The method of preparation of rec. SFV RNA, the transfection and the analysis by Western Blotting or immunofluorescence (FIG. 12) or FACS (FIG. 13) have already been described (Gauczynski et al., 2002; Gauczynski et al., 2001b). 24 h post-transfection, total cell extracts were analyzed by Western Blotting. […] The control used was the anti-LRP antibody mLRP43512 (A), and an anti-mouse IgG-HRP-coupled secondary antibody. As a loading control, the β-actin level was determined. To this end, an anti-β-actin antibody (Chemicon) was employed. Detection was carried out by chemiluminescence (Western Lightning, NEN). […] LRP::FLAG.

[3] = target: T3, recombinant murine LRP::FLAG expressed in BHK cells transfected with SFV1-moLRP::FLAG (murine, UniProt P14206 2-295); assay: as above
T3 construct: whole, on cells; also called muLRP-FLAG; murine 37 kDa LRP::FLAG
Protocol: as §1

[4] = target: T4, LRP peptide TEDWSAAPTAQATEW (synthesized on a cellulose membrane); assay: peptide array on cellulose membrane, scFv 1:5000
T4 peptide: TEDWSAAPTAQATEW
Protocol: (§2) The N-terminus of each peptide was displaced by 3 amino acids in relation to the previous peptide, so that each peptide overlapped with the previous peptide by 12 amino acids. The synthesis of the peptides was carried out on a cellulose membrane.

[5] = target: T5, LRP peptide PSVPIQQFPTEDWSA (synthesized on a cellulose membrane); assay: peptide array on cellulose membrane, scFv 1:5000
T5 peptide: PSVPIQQFPTEDWSA
Protocol: as §2

[6] = target: T6, LRP peptide EKAVTKEEFQGEWTA (also: synthesized on a cellulose membrane); assay: peptide array on cellulose membrane, scFv 1:5000
T6 peptide: EKAVTKEEFQGEWTA
Protocol: as §2

[7] = target: T7, LRP peptide VTKEEFQGEWTAPAP (also: synthesized on a cellulose membrane); assay: peptide array on cellulose membrane, scFv 1:5000
T7 peptide: VTKEEFQGEWTAPAP
Protocol: as §2

Measured: binding result

B1: single chain antibody N3 selected from the naive scFv bank (scFv)
scFv: EVQLVESGGGVVQPGRSLRLSCAASGFTFSSYGMHWVRQAPGKGLEWVAVIWYDGSNKYYADSVKGRFTISRDNSKNTLYLQMNSLRAEDTAVYYCATIPRSSFYYGMDVWGQGTTVTVSSGSASAPTLKLEEGEFSEARVQPVLTQPPSASGTPGQRVTISCSGSRSNIGSNTVNWYQQLPGTAPKLLIYGNNQRPSGVPERFSGSKSGTSASLAISGLQSEDEADYYCAAWDDSLTGVLFGGGTKLTVLGQPKAAPSVTLFPPSSAAAGSHHHHHH
notes: VH and VL joined by a peptide linker (YOL), with a C-terminal histidine tag; also called scFv N3; scFvN3
not listed: [6] | [7]
binds: all other assays above

B2: single chain antibody S18 selected from the synthetic scFv bank (scFv)
scFv: QVQLQESGGGLVQPGGSLRLSCAASGFMFSRYAMSWVRQAPGKGPEWVSGISGSGGSTYYADSVKGRFTVSRDNSKNTLYLQMNSLRAEDTAVYYCARHPGFWHFDYWGQGTLVTVSSGSASAPKLEEGEFSEARVSELTQDPAVSVALGQTVRITCQGDSLRNFYASWYQQKPGQAPTLVIYGLSKRPSGIPDRFSASSSGNTASLTITGAQAEDEADYYCNSRDRSGNHVNVLFGGGTKLTVLRQPKAAPSVTLFPPSSAAAGSHHHHHH
notes: VH and VL joined by a peptide linker (YOL), with a C-terminal histidine tag; also called scFv S18; scFvS18
not listed: [4] | [5]
binds: all other assays above

Reference: patent publication US20070041977A1 (AFFIMED THERAPEUTICS, published 2007)
